Molecular target: the molecule itself
Assay: SEC

B1: bacterioferritin B (BfrB) from Mycobacterium tuberculosis (natural protein)
chain: MTEYEGPKTKFHALMQEQIHNEFTAAQQYVAIAVYFDSEDLPQLAKHFYSQAVEERNHAMMLVQHLLDRDLRVEIPGVDTVRNQFDRPREALALALDQERTVTDQVGRLTAVARDEGDFLGEQFMQWFLQEQIEEVALMATLVRVADRAGANLFELENFVAREVDVAPAASGAPHAAGGRL
notes: also called BrfB; mycobacterial ferritin; copies: 24
B1: binds.

From article PMC8329864, “Mycobacterium tuberculosis ferritin: a suitable workhorse protein for cryo-EM development” (Acta Crystallographica. Section D, Structural Biology, 2021)
